According to patent publication US7622265B2, “Methods and compositions for modulating prostasin” (Genentech, Inc., priority 2005, dated 2009):
Residue numbers refer to the chain shown, from its start. Names and notes keep the numbering of the source. Each block holds one molecule with its values, some of them ahead of it. Where no end group is shown, it is not given here.

Tests used:
prostasin [1] = target: T1, prostasin (Homo sapiens, UniProt Q16651); assay: Enzyme inhibition assay (amidolytic activity of prostasin towards S2765); format: biochemical; set-up: made in house; host or cells: CHO cells (transient transfection, pRK5E); purified from conditioned medium on aprotinin-agarose; conditions: for inhibition of prostasin enzymatic activity (in words): substrate S2765
Procedure: The increase in absorbance at 405 nm was monitored on a kinetic microplate reader (Molecular Devices, Sunnyvale, Calif.). The linear rates of the increase in absorbance were expressed as percentage activities (100%×vi/v0). […] At least three independent experiments were performed for each inhibitor.
Target sequence in this assay (Q16651 45-322 limits assumed, other chains not shown): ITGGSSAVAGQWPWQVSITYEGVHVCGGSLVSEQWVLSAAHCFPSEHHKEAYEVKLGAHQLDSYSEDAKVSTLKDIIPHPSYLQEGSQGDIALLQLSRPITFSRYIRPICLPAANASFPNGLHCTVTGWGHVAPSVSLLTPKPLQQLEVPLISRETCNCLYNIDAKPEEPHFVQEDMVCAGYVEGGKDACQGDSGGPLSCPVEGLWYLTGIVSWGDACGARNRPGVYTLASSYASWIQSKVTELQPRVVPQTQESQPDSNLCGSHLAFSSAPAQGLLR

prostasin [2] = target: T1, prostasin; conditions: purified enzyme system; cited from earlier work
Target sequence in this assay (Q16651 33-343, species assumed): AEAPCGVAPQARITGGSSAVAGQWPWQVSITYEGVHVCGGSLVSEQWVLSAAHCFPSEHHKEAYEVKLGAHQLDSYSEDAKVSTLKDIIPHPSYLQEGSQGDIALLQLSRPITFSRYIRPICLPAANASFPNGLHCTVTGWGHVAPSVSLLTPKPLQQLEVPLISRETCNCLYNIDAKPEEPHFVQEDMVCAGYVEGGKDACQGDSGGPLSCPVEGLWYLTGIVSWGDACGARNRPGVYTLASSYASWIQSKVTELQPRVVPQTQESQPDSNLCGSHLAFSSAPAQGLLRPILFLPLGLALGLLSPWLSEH

prostasin [3] = target: T1, prostasin; assay: Prostasin binding assay (complex formation, immunoblotting); set-up: made in house; host or cells: CHO cells (transient transfection, pRK5E); purified from conditioned medium on aprotinin-agarose; conditions: 20 nM sHAI-1B, 37° C., 0.5 or 2 h, immunoblot with anti-HAI-1B polyclonal antibody
Procedure: Prostasin binding assay—Purified prostasin and sHAI-1B were diluted in 20 mM Tris-Cl, pH 9.0 containing 0.01% Triton X-100 (TT buffer) to the final concentration as indicated. The mixture was incubated at 37° C. for 0.5 h or 2 h and the reaction was stopped by addition of SDS sample buffer with DTT. 30 μl of each sample was analyzed by immunoblotting.
Prostasin and sHAI-1B form 1:1 complexes—Soluble prostasin was purified from conditioned medium of CHO cells transiently transfected with full-length prostasin. […] Prostasin was incubated with sHAI-1B comprising the entire extracellular domain of HAI-1B (Kirchhofer, Peek et al. 2003) at different molar ratios (FIG.2A). Increasing concentrations of prostasin shifted the sHAI-1B band (55 kDa) to the higher molecular mass species of 85 kDa, indicating the formation of prostasin:sHAI-1B complexes. At a 10-fold molar excess of prostasin, almost all sHAI-1B was bound to prostasin. Immunoblotting with anti-prostasin antibody confirmed that the 85 kDa band comprised complexes of sHAI-1B and prostasin (data not shown).
Target sequence in this assay (Q16651 45-322 limits assumed, other chains not shown): as the sequence (Q16651 45-322 limits assumed, other chains not shown) above

inhibition of prostasin enzymatic activity (in words) (prostasin [1]; prostasin 3 nM): did not inhibit prostasin | IC50 (prostasin [1]; prostasin 3 nM, substrate S2765 0.05 mM, TT buffer, 20 min preincubation at room temperature, averages ± S.D. of at least three independent experiments, read-out: IC50 (nM), effects of inhibitors on the activity of prostasin): > 1000 nM
Molecule: APPI: Alzheimer's amyloid β protein precursor inhibitor, a Kunitz domain (VREVCSEQAETGPCRAMISRWYFDVTEGKCAPFFYGGCGGNRNNFDTEEYCMAVCGSA; ends and bridges not checked; cysteine pairing not given here) [reference compound]

B1: HAI-2: hepatocyte growth factor activator inhibitor-2, a bi-Kunitz type serine protease inhibitor (protein, UniProt O43291 28-252, looked up)
Kunitz-type protease …: ADRERSIHDFCLVSKVVGRCRASMPRWWYNVTDGSCQLFVYGGCDGNSNNYLTKEECLKKCATVTENATGDLATSRNAADSSVPSAPRRQDSEDHSSDMFNYEEYCTANAVTGPCRASFPRWYFDVERNSCNNFIYGGCRGNKNSYRSEEACMLRCFRQQENPPLPLGSKVVVLAGLFVMVLILFLGASMVYLIRVARRNQERALRTVWSSGDDKEQLVKNTYVL
inhibition of prostasin activity (in words) (prostasin [2]): potently inhibit prostasin activity

B2: sHAI-1B K401A: KD2 mutant of sHAI-1B, P1 residue Lys401 (in KD2) changed to Ala (protein)
chain: GPPPAPPGLPAGADCLNSFTAGVPGFVLDTNASVSNGATFLESPTVRRGWDCVRACCTTQNCNLALVELQPDRGEDAIAACFLINCLYEQNFVCKFAPREGFINYLTREVYRSYRQLRTQGFGGSGIPKAWAGIDLKVQPQEPLVLKDVENTDWRLLRGDTDVRVERKDPNQVELWGLKEGTYLFQLTVTSSDHPEDTANVTVTVLSTKQTEDYCLASNKVGRCRGSFPRWYYDPTEQICKSFVYGGCLGNKNNYLREEECILACRGVQGGPLRGSSGAQATFPQGPSMERRHPVCSGTCQPTQFRCSNGCCIDSFLECDDTPNCPDASDEAACEKYTSGFDELQRIHFPSDKGHCVDLPDTGLCAESIPRWYYNPFSEHCARFTYGGCYGNKNNFEEEQQCLESCRGISKKDVFGLRREIPIPSTGSVE
inhibition of prostasin enzymatic activity (in words) (prostasin [1]; prostasin 3 nM): inhibitory potency comparable to the wildtype | complex formation with prostasin (prostasin [3]): still formed an 85 kDa complex with prostasin

fold less potent than wildtype sHAI-1B (prostasin [1]; IC50 compared with wildtype sHAI-1B): at least 18 fold | complex formation with prostasin (prostasin [3]): did not
B3: sHAI-1B R260A: KD1 mutant of sHAI-1B, P1 residue Arg260 (in KD1) changed to Ala (protein)
chain: B2 chain with R225A, A366K
